From patent US6284879A, “Transport associated protein splice variants” (The General Hospital Corporation, priority 1998, dated 2001)
“Also recorded” adds a separate entry of the source.

T1: TAP1/TAP2iso heterodimer (Homo sapiens, UniProt Q03518+Q03519)
T1 construct: expressed in transfected cells
T1 sequence (Q03519 1-653 isoform Q03519-2 L359K/V379I): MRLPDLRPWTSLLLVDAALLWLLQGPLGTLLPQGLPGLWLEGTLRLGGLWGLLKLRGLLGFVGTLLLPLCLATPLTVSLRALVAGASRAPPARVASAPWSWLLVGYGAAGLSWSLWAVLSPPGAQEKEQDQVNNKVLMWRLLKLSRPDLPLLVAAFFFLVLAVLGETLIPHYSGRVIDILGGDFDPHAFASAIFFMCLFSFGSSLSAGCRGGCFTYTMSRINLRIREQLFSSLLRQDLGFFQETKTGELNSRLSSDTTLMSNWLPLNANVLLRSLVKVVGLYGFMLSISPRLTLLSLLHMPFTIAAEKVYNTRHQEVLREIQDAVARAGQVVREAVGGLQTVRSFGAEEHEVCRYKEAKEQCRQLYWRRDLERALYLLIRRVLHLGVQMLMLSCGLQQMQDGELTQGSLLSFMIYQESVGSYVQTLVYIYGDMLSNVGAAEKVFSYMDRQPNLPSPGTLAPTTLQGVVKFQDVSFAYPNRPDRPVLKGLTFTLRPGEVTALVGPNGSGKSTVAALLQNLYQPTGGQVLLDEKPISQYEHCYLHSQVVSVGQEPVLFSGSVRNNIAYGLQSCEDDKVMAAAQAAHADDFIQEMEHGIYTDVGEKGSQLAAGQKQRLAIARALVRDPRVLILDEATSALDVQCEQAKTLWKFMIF
T1 sequence (Q03518 1-748): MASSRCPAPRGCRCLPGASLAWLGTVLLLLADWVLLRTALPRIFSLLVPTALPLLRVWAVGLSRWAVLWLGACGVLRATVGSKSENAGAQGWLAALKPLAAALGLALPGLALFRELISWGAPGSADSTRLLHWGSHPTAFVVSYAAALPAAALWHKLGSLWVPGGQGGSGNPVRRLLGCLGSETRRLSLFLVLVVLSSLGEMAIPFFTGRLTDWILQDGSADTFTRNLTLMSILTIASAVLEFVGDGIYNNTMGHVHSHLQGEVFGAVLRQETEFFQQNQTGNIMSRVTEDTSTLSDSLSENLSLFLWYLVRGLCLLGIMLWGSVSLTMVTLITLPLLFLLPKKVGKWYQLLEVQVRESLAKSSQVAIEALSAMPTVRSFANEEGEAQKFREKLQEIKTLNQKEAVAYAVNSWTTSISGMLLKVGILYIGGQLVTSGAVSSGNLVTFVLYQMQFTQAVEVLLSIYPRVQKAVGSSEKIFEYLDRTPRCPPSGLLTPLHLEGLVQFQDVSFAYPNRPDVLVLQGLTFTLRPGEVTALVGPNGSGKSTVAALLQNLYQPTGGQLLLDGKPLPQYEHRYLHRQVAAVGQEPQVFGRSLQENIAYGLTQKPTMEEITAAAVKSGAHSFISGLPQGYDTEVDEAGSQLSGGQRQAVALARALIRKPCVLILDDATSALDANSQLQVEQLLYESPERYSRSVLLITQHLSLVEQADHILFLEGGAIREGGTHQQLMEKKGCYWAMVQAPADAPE

B1: TAP1: known TAP1 subunit (TAP1 A allele cDNA) (protein)
chain: T1 sequence (Q03518 1-748)
B2: TAP1/TAP2iso: novel TAP heterodimer of TAP1 and splice variant TAP2iso, expressed from transfected cDNAs (protein)
chain 1: T1 sequence (Q03518 1-748)
chain 2: T1 sequence (Q03519 1-653 isoform Q03519-2 L359K/V379I)
B3: TAP1/TAP2: previously known TAP transporter, heterodimer of the TAP1 and TAP2 gene products (protein)
chain 1: T1 sequence (Q03518 1-748)
chain 2: MRLPDLRPWTSLLLVDAALLWLLQGPLGTLLPQGLPGLWLEGTLRLGGLWGLLKLRGLLGFVGTLLLPLCLATPLTVSLRALVAGASRAPPARVASAPWSWLLVGYGAAGLSWSLWAVLSPPGAQEKEQDQVNNKVLMWRLLKLSRPDLPLLVAAFFFLVLAVLGETLIPHYSGRVIDILGGDFDPHAFASAIFFMCLFSFGSSLSAGCRGGCFTYTMSRINLRIREQLFSSLLRQDLGFFQETKTGELNSRLSSDTTLMSNWLPLNANVLLRSLVKVVGLYGFMLSISPRLTLLSLLHMPFTIAAEKVYNTRHQEVLREIQDAVARAGQVVREAVGGLQTVRSFGAEEHEVCRYKEAKEQCRQLYWRRDLERALYLLIRRVLHLGVQMLMLSCGLQQMQDGELTQGSLLSFMIYQESVGSYVQTLVYIYGDMLSNVGAAEKVFSYMDRQPNLPSPGTLAPTTLQGVVKFQDVSFAYPNRPDRPVLKGLTFTLRPGEVTALVGPNGSGKSTVAALLQNLYQPTGGQVLLDEKPISQYEHCYLHSQVVSVGQEPVLFSGSVRNNIAYGLQSCEDDKVMAAAQAAHADDFIQEMEHGIYTDVGEKGSQLAAGQKQRLAIARALVRDPRVLILDEATSALDVQCEQALQDWNSRGDRTVLVIAHRLQTVQRAHQILVLQEGKLQKLAQL

What was measured:
TAP1/TAP2iso heterodimer = molecular target: T1, TAP1/TAP2iso heterodimer; assay: competition with transport of 125I-Peptide RRYQNSTEL in TAP1/TAP2iso transfectants; assay type: cell-based; conditions: unlabeled competitor peptide; comparison in words
Protocol: (§1) Glycosylated ^125 I Peptide […] (SEQ ID NO: 6), Peptide […] (SEQ ID NO: 7), or Peptide […] (SEQ ID NO: 8) was recovered and measured. The peptide translocation assay was performed essentially as previously described (Neefjes et al., Science, 261:769 (1993); and Momburg et al., J. Exp. Med., 179:1613 (1994)). Briefly, 2.5-5.0×10^6 T2 cell (transfected or untransfected) were washed once with incubation buffer (130 mM KCl, 10 mM NaCl, 1 mM CaC2, 2 mM EDTA, 2 mM MgCl2, 5 mM Hepes, pH 7.3) and permeabilized for 10 minutes at 37° C. with streptolysin O (2 IU/ml) (Wellcome, Beckenham, UK) in 50 μl of incubation buffer. After further addition of 10 μl of 100 mM adenosine triphosphate, 10 μl of ^125 I-labeled peptide (~15 pM), and 30 μl of incubation buffer, cells were incubated for an additional 10 minutes at 37° C. Transport was terminated by the addition of 1 ml of 1% NP-40 detergent, after which nuclei were removed by centrifugation and glycosylated peptides were recovered using concanavalin A-Sepharose (Sigma, St. Louis, Mo.) and quantitated with a gamma counter (LKB-Wallac).
Differential peptide selectivity of the TAP1/TAP2 and TAP1/TAP2iso heterodimers was further investigated by competition experiments with ^125 I-labeled Peptide […] (SEQ ID NO: 6) and various unlabeled peptides: Peptide […] (SEQ ID NO: 6); Peptide […] (SEQ ID NO: 7); Peptide […] (SEQ ID NO: 8); Peptide […] (SEQ ID NO: 9), the S1-24 fragment of human adrenocorticotropic hormone); and Peptide […] (SEQ ID NO: 10), residues 22 to 30 (human insulin B chain). The iodinated 9-mer Peptide […] was translocated in the presence of different concentrations of unlabeled competition peptides. The glycosylated peptides were recovered by Con A-Sepharose and quantitated. […] (self); (6B) competition of ^125 I-Peptide […] with Peptide […]; (6C) competition of ^125 I-Peptide […] with Peptide […]; and (6D) competition of ^125 I-Peptide […] with Peptide […]; and (6E) competition of ^125 I-Peptide […] with Peptide […].

[1] = test system: TAP1/TAP2iso heterodimer (compared with TAP1/TAP2); assay: translocation of 125I-labeled peptides into the ER of permeabilized T2 transfectants; assay type: cell-based, human; conditions: 125I-labeled glycosylated peptide recovered from streptolysin O permeabilized T2 transfectants; comparison in words
Protocol: 10 mM stock solutions of peptides were prepared in dimethyl sulfoxide. Peptides (25 μg) were directly iodinated at unique tyrosine residues with the use of chloramine T (Sigma, St. Louis, Mo.), and free iodine was removed by gel filtration using Sephadex G 10 (Pharmacia) column chromatography.
as §1

[2] = test system: T1 cells (naturally co-express both TAP2 and TAP2iso); conditions: in words
[3] = test system: HLA class I (A2) on T2 cells; assay: restoration of surface expression of HLA class I (A2) on transfected T2 cells, flow cytometry; assay type: cell-based, human; conditions: for Mean fluorescence of HLA class 1 (A2) Mean ± SD / surface expression of HLA/MHC class I: T2 cells transfected with the named cDNAs; for Mean fluorescence of HLA class 1 (A2) Mean ± SD: four separate experiments, at least three stable clones; for surface expression of HLA/MHC class I: in words
Protocol: Plasmid DNAs were prepared using MAXI-PREP kits (Qiagen). TAP1- and TAP2-deficient T2 cells (donated by P. Cresswell, Howard Hughes Medical Institute, Yale University) (1-2×10^7 cells/ml) were transfected by electroporation with 10 μg of TAP1 and TAP2 or TAP2iso linear plasmid DNA in a 0.4-cm cuvette at 260 V and 960 μF. Subcloning and selection of transfectants were performed by culturing in the presence of hygromycin (250 μg/ml) or histidinol ([…]) for the PREP 4 and PREP8 vectors, respectively.
Immune complexes were detected with fluorescein isothiocyanate-conjugated goat anti-mouse IgG antibodies (Coulter, Hialeah, Fla.) and an Epics Elite flow cytometer (Coulter).
T2 cells were transfected with TAP1 cDNA in combination with TAP2 or TAPiso cDNAs as described above.

Molecule	inhibition of transport of 125I-Peptide RRYQNSTEL, TAP1/TAP2iso compared with TAP1/TAP2 transfectants (TAP1/TAP2iso heterodimer)	amount of translocated peptide, TAP1/TAP2iso compared with TAP1/TAP2 [1]	transportation of test peptides (relative IC50) [2]	Mean fluorescence of HLA class 1 (A2) Mean ± SD [3]	surface expression of HLA/MHC class I [3]	surface MHC class I expression, greater than in cells transfected with TAP1-TAP2 cDNAs ([3]; transfected T2 cells) [%]
TVDNKTRYE [Peptide TVDNKTRYE]	markedly greater extent in TAP1/TAP2 transfectants	transported to a greater extent by TAP1/TAP2; also recorded: transported more efficiently in the TAP1/TAP2 transfectant	equal efficiency	–	–	–
RGFFYTPKA [Peptide RGFFYTPKA, residues 22 to 30 (human insulin B chain)]	in TAP1/TAP2iso to a greater extent	–	–	–	–	–
IYLGPFSPNVTL [Peptide IYLGPFSPNVTL]	markedly greater extent in TAP1/TAP2iso transfectants	transported to a greater extent by TAP/TAP2iso; also recorded: four times more efficiently by the TAP1/TAP2iso heterodimer	equal efficiency	–	–	–
B1	–	–	–	5.19 ± .35	no effect	–
B2	–	–	–	11.16 ± .50	restored surface expression	30
B3	–	–	–	7.59 ± .31	restored surface expression	–
